Measured values from paper PMC4482583, “The Dimerization State of the Mammalian High Mobility Group Protein AT-Hook 2 (HMGA2)” (PLoS ONE, 2015).
No end group written: not given here. TMR = tetramethylrhodamine-5-maleimide

Tests used:
[1] = molecular target: T1, HMGA2Δ95–108 (mouse, UniProt P52927 1-94); test: SEC; CTP-TMR incubated with HMGA2Δ95–108 for 30 minutes at 24°C, resolved on Sephacryl S-100 HR (1×50 cm) in BPES buffer; OD556 and SDS-PAGE of fractions; conditions: both partners purified
T1 construct: also called mutant that lacks the negatively charged C-terminus; source: made by PCR-based site directed mutagenesis, purified as described previously [26]
T1 sequence (looked up): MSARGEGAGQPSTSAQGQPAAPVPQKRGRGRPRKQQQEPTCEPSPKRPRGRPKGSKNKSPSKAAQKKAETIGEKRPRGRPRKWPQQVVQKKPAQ

[2] = molecular target: the molecule itself; test: cross-linking; EDC (2 mM, zero-length) in MES buffer (10 mM MES, pH 5.5, 50 mM NaCl), 2 hours at 24°C; 29-116 μM protein; 15% SDS-PAGE, Coomassie
[3] = molecular target: the molecule itself; test: FRET or BRET; 20 nM HMGA2-FM titrated with HMGA2-TMR in 50 mM Tris-HCl (pH 8.0), 200 mM NaCl; excitation 492 nm, read at 518 nm
[4] = molecular target: the molecule itself; test: cross-linking; EDC cross-linking of the cysteineless mutant; data not shown

B1: C-terminal peptide (CTP) of HMGA2 labeled with tetramethylrhodamine-5-maleimide (CTP-TMR) (peptide)
peptide: C(TMR)ETEETSSQESAEED
notes: first residue of the printed peptide H-CETEETSSQESAEED-OH; the cysteine that carries the label; the negatively charged C-terminus of HMGA2, mouse; 14 residues; also called the C-terminal peptide; source: synthetic peptide (custom-synthesized by Advanced ChemTech, Inc.), labeled with TMR, purified on SP-sepharose
binding result [1]: binds

B2: mammalian high mobility group protein AT-hook 2 (HMGA2) (natural protein, mouse, UniProt P52927 1-108, looked up)
chain: MSARGEGAGQPSTSAQGQPAAPVPQKRGRGRPRKQQQEPTCEPSPKRPRGRPKGSKNKSPSKAAQKKAETIGEKRPRGRPRKWPQQVVQKKPAQETEETSSQESAEED
notes: also called mouse HMGA2; recombinant HMGA2; source: recombinant, purified as described previously [26]
stoichiometry N [2]: 2

B3: HMGA2 labeled with fluorescein-5-maleimide (HMGA2-FM) or tetramethylrhodamine-5-maleimide (HMGA2-TMR) (natural protein, mouse, UniProt P52927 1-108, looked up)
chain: MSARGEGAGQPSTSAQGQPAAPVPQKRGRGRPRKQQQEPTCEPSPKRPRGRPKGSKNKSPSKAAQKKAETIGEKRPRGRPRKWPQQVVQKKPAQETEETSSQESAEED
modifications: fluorescein-5-maleimide (FM) or tetramethylrhodamine-5-maleimide (TMR) on the cysteine residue
notes: labeled at its one cysteine residue; also called HMG-TMR; source: recombinant HMGA2, labeled with TMR or FM, purified (Sephadex G-50 spin columns, dialysis)
stoichiometry N [3]: 2

B4: HMGA2C41G (natural protein, mouse, UniProt P52927 1-108, looked up)
chain: MSARGEGAGQPSTSAQGQPAAPVPQKRGRGRPRKQQQEPTGEPSPKRPRGRPKGSKNKSPSKAAQKKAETIGEKRPRGRPRKWPQQVVQKKPAQETEETSSQESAEED
notes: also called cysteineless mutant protein; source: made by PCR-based site directed mutagenesis, purified as described previously [26]
stoichiometry N [4]: 2
